Experimental data taken from patent US20120129766A1 (IRM, published 2012).
Positions count from the first letter of the chain named.

T1: human β-klotho (human, UniProt Q86Z14 1-1044)
T1 sequence (looked up): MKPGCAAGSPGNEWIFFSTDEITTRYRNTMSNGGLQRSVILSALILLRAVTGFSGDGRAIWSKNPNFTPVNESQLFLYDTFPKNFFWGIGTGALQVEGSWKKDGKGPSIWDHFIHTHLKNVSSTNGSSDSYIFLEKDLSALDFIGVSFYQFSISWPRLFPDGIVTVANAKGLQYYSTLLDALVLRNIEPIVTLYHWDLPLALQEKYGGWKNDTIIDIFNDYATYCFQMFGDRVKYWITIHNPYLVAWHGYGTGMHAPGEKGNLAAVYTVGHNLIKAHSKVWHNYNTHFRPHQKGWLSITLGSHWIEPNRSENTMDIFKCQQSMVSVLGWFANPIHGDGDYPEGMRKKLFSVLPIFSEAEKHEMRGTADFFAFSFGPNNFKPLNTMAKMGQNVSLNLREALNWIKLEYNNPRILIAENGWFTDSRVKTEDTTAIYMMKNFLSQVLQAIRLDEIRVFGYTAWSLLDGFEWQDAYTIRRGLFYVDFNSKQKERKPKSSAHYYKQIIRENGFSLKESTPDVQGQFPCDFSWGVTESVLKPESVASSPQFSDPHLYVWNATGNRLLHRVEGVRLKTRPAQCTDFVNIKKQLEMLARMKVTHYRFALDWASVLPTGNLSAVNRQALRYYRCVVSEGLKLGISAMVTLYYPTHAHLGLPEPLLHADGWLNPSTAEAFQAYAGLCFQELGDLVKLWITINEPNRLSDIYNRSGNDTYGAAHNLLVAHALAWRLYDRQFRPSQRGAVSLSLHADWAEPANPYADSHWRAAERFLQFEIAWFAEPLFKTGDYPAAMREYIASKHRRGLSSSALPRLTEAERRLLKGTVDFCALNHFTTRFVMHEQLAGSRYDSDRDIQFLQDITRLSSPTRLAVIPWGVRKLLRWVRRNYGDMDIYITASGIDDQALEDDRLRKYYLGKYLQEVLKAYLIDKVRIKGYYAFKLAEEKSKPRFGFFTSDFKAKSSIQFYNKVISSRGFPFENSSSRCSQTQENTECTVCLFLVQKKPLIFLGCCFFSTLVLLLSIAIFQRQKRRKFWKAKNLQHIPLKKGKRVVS

B1: hFGF21(33-209)-V58 (ligand)
chain: DSSPLLQFGGQVRQRYLYTDDAQQTEAHLEIREDGTVGGAAHQSPESLLQLKALKPGVIQILGVKTSRFLCQRPDGTLYGSLHFDPEACSFRELLLENGYNVYQSETHGLPLHLPGNRSPHRDPASQGPARFLPLPGLPPAPPEPPGILAPQPPDVGSSDPLAMVGPSQARSPSYAS
B2: hFGF21(33-209)-V62 (ligand)
chain: B1 chain with Q23C, T77A, G116C, R118K
B3: hFGF21(33-209)-V73-N-40 kDa bPEG-AL (ligand)
chain: B1 chain with Q24E, Q50E, R73K, T77A, N98E, T107A, S126P, P142L, A170G
modifications: 40 kDa branched PEG (aldehyde reagent) on the N-terminal amine
B4: hFGF21(33-209)-V64 (ligand)
chain: B1 chain with Q23C, H42D, G116C, Q127R
B5: hFGF21(33-209)-V59 (ligand)
chain: B1 chain with Q23C, Q50E, T77A, T107A, G116C, A170G
B6: hFGF21(33-209)-V80 (ligand)
chain: B1 chain with H42D, Q50E, R73K, N98D, T107A, R122C, S126P, P142L
B7: hFGF21(33-209)-V73 (ligand)
chain: B1 chain with Q24E, Q50E, R73K, T77A, N98E, T107A, S126P, P142L, A170G
B8: hFGF21(33-209)-V60 (ligand)
chain: B1 chain with Q23C, Q50E, T107A, G116C, Q127R, A170G
B9: hFGF21(33-209)-V8 (ligand)
chain: B1 chain with Q24E, K65Q, R73K, T77A, R118K, P142L
B10: hFGF21(33-209)-V61 (ligand)
chain: B1 chain with Q23C, V37A, Q50E, T77A, T107A, G116C, Q127R, A170G
B11: hFGF21(33-209)-V63 (ligand)
chain: B1 chain with Q23C, T77A, G116C, Q127R
B12: hFGF21(33-209)-V76 (ligand)
chain: B1 chain with Q24E, Q50E, R73K, T77A, N98D, T107A, R122C, S126P, P142L, A170G
B13: hFGF21(33-209)-V79 (ligand)
chain: B1 chain with Q50E, R73K, T77A, N98D, T107A, R122C, S126P, P142L
B14: hFGF21(33-209)-V76-154C-40 kDa-bPEG-MA (ligand)
chain: B1 chain with Q24E, Q50E, R73K, T77A, N98D, T107A, R122C, S126P, P142L, A170G
modifications: 40 kDa branched maleimido-PEG on Cys 154 (numbered on SEQ ID NO:1)
B15: hFGF21(33-209)-V9 (ligand)
chain: B1 chain with A22D, T66A, R73K, T77A, R118K, P142L

biological target: T1, human β-klotho; assay: cell-based or functional assay

| EC50 (nM), pERK In Cell Western [nM] | Fold-WT (EC50 of variant / EC50 of FGF21-WT) [fold] | Binder |
| --- | --- | --- |
| 3.6 | 2.6 | B1 |
| 24 | 6.8 | B2 |
| 191 | 66 | B3 |
| 2.9 | 0.8 | B4 |
| 6.5 | 1.6 | B5 |
| 2.2 | 0.4 | B6 |
| 5.8 | 1.7 | B7 |
| 7.6 | 2.2 | B8 |
| 14 | 5 | B9 |
| 22 | 6.3 | B10 |
| 13 | 3.7 | B11 |
| 3.4 | 0.47 | B12 |
| 2.2 | 0.4 | B13 |
| 8.3 | 2.4 | B14 |
| 13 | 2.4 | B15 |
